The values below come from PMC7356358.

In data set [1] the target is KPf, chimeric protein of the ATPase domain of DnaK and the substrate binding domain of PfHsp70-1 (Escherichia coli | Plasmodium falciparum). Description: SPR. Background: Surface plasmon resonance follows binding to a sensor surface in real time, without labels.
In data set [2] the test system is Nc1ncnc2c1ncn2[C@@H]1O[C@H](COP(=O)(O)OP(=O)(O)OP(=O)(O)O)[C@@H](O)[C@H]1O. Description: purified protein, by the assay type. The conditions noted are these: pH 7.5.
Protocol: Hsp70 proteins at final concentration of 0.4 μM were each incubated for 5 min in buffer HKMD (10 mM HEPES-KOH pH 7.5, 100 mM KCl, 2 mM MgCl2 and 0.5 mM DTT). The reaction was initiated by the addition of ATP at various concentrations (0–5 mM) and samples were analyzed every 30 min for 4 h.
Standard deviations shown represent three independent assays made using separate protein purification batches.
validated by one way ANOVA test (p< 0.05 *) and (p<0.01**).

Several values for one entry are separate records, joined by “and”; a condition that tells them apart may be missing. Identical values can stand only once.

Turning to “KPf, chimeric protein of the ATPase domain of DnaK and the substrate binding domain of PfHsp70-1”, the kon (usually the rate constant with which the complex forms) in data set [1] was 154 M⁻¹ s⁻¹ and 132 M⁻¹ s⁻¹ and 142 M⁻¹ s⁻¹.

Turning to PfHsp70-1 (Plasmodium falciparum 3D7), in data set [2], the Michaelis-Menten constant (Km) (commonly the substrate concentration at which the rate is half of its maximum) was 370.8 µM.
